Source: IntAct's records for PubMed 23230146

B1: Autophagy-related protein 18 (Saccharomyces cerevisiae), P43601 (parent)
chain: MSDSSPTINFINFNQTGTCISLGTSKGFKIFNCEPFGKFYSEDSGGYAIVEMLFSTSLLALVGIGDQPALSPRRLRIINTKKHSIICEVTFPTSILSVKMNKSRLVVLLQEQIYIYDINTMRLLHTIETNPNPRGLMAMSPSVANSYLVYPSPPKVINSEIKAHATTNNITLSVGGNTETSFKRDQQDAGHSDISDLDQYSSFTKRDDADPTSSNGGNSSIIKNGDVIVFNLETLQPTMVIEAHKGEIAAMAISFDGTLMATASDKGTIIRVFDIETGDKIYQFRRGTYATRIYSISFSEDSQYLAVTGSSKTVHIFKLGHSMSNNKLDSDDSNMEEAAADDSSLDTTSIDALSDEENPTRLAREPYVDASRKTMGRMIRYSSQKLSRRAARTLGQIFPIKVTSLLESSRHFASLKLPVETNSHVMTISSIGSPIDIDTSEYPELFETGNSASTESYHEPVMKMVPIRVVSSDGYLYNFVMDPERGGDCLILSQYSILMD

Variants of: B1
Details: with atg2_yeast ATG2, P53855
atg2_yeast ATG2, P53855, sequence (P53855 whole entry): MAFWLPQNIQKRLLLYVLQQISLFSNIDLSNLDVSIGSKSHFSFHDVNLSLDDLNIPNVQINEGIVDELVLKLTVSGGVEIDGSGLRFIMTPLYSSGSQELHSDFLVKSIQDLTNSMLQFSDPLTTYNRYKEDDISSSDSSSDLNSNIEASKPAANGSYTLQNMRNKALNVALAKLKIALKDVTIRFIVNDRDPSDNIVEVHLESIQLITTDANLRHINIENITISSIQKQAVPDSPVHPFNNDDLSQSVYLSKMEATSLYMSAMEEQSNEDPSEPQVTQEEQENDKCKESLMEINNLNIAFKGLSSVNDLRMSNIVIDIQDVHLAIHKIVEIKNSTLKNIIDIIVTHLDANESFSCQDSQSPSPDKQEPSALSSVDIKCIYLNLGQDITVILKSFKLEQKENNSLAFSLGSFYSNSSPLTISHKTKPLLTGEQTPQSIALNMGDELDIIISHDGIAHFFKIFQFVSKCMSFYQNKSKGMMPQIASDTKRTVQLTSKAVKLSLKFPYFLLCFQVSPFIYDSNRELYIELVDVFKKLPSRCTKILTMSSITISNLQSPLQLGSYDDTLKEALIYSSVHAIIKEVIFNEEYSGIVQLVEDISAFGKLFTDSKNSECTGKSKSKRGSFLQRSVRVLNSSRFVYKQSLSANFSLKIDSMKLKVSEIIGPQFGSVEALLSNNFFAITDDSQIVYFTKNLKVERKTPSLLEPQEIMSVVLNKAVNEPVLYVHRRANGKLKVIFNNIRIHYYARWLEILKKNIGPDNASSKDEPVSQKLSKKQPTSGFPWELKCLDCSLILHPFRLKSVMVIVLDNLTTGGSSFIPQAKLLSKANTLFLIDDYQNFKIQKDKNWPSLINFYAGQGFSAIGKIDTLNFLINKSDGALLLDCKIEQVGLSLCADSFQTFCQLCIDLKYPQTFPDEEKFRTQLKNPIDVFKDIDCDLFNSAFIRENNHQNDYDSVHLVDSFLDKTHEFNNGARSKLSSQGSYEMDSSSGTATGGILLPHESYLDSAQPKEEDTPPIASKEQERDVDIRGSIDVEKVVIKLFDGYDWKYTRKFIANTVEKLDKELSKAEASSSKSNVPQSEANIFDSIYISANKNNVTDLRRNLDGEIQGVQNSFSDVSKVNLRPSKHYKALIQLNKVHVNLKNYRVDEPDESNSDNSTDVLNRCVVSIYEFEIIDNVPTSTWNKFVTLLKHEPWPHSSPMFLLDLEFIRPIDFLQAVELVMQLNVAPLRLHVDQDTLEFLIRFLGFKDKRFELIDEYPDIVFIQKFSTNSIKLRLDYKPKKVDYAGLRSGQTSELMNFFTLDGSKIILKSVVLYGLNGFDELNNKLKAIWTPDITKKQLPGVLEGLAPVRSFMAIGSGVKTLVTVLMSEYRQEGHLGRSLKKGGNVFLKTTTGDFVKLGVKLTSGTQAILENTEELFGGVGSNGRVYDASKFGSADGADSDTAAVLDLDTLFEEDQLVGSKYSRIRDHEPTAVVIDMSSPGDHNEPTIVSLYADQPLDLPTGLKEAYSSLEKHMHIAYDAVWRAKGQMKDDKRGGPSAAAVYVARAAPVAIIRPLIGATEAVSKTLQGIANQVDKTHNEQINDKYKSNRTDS

Row | effect of a mutation on the interaction | Variant
1 | disrupting interaction strength | E42A;D43A;S44A;Y47A;T90A;F91A;P92A;T93A;S94A

Variants of: B1
Details: with atg2_yeast ATG2, P53855
Remark: another data set of the same source

Row | effect of a mutation on the interaction | Variant
2 | decreasing interaction strength | T90A;F91A;P92A;T93A;S94A

Variants of: B1
Details: with atg2_yeast ATG2, P53855
Remark: another data set of the same source

Row | effect of a mutation on the interaction | Variant
3 | disrupting interaction strength | R285A;R286A
